What was measured:
Assay in all cases: cell-based or functional assay
[1] = target: TSHR with Lys129 mutated to Ala, expressed in CHO cells (human) (UniProt P16473)
[2] = target: TSHR with Asp151 mutated to Ala, expressed in CHO cells (human) (UniProt P16473)
[3] = target: TSHR with Asp203 mutated to Ala expressed in CHO cells (human) (UniProt P16473)
[4] = target: wild type TSHR expressed in CHO cells (human) (UniProt P16473)

TSH (ligand)
% inhibition of TSH stimulation; TSH (2) control [1]: 3%
Cyclic AMP produced; TSH 3 ng/mL [1]: 49.2 pmol/mL
Cyclic AMP produced; TSH (2) [1]: 47.9 pmol/mL
Mutated/wild type (%) of cyclic AMP produced; TSH 3 ng/mL [1]: 98%
Mutated/wild type (%) of cyclic AMP produced; TSH (2) [1]: 90%
% inhibition of TSH stimulation, mutated TSHR; TSH (2) (run at the end of assay) [2]: 9%
Mutated/Wild type (%) of cyclic AMP produced, TSH 0.01 ng/mL [2]: 209%
Mutated/Wild type (%) of cyclic AMP produced, TSH 0.03 ng/mL [2]: 149%
Mutated/Wild type (%) of cyclic AMP produced, TSH 0.1 ng/mL [2]: 99%
Mutated/Wild type (%) of cyclic AMP produced, TSH 0.3 ng/mL [2]: 80%
Mutated/Wild type (%) of cyclic AMP produced, TSH 1 ng/mL [2]: 66%
Mutated/wild type (%) of cyclic AMP produced; TSH 3 ng/mL [2]: 68%
Mutated/wild type (%) of cyclic AMP produced; test sample: TSH (3 ng/mL) [2]: 62%
Mutated/wild type (%) of cyclic AMP produced; test sample: TSH (2) (3 ng/mL, run at the end of assay) [2]: 44%
Cyclic AMP produced (pmol/mL), 0.01 ng/mL TSH [3]: 5.3 pmol/mL
Cyclic AMP produced (pmol/mL), 0.03 ng/mL TSH [3]: 7.13 pmol/mL
Cyclic AMP produced (pmol/mL), 0.1 ng/mL TSH [3]: 13 pmol/mL
Cyclic AMP produced (pmol/mL), 0.3 ng/mL TSH [3]: 33.8 pmol/mL
Cyclic AMP produced (pmol/mL), 1 ng/mL TSH [3]: 58.6 pmol/mL
Cyclic AMP produced (pmol/mL), 3 ng/mL TSH [3]: 69.3 pmol/mL
Mutated/Wild type (%) of cyclic AMP produced, 0.01 ng/mL TSH [3]: 231%
Mutated/Wild type (%) of cyclic AMP produced, 0.03 ng/mL TSH [3]: 200%
Mutated/Wild type (%) of cyclic AMP produced, 0.1 ng/mL TSH [3]: 154%
Mutated/Wild type (%) of cyclic AMP produced, 0.3 ng/mL TSH [3]: 128%
Mutated/Wild type (%) of cyclic AMP produced, 1 ng/mL TSH [3]: 89%
Mutated/Wild type (%) of cyclic AMP produced, 3 ng/mL TSH [3]: 90%
% inhibition of TSH stimulation, wild type TSHR; TSH (2) (run at the end of assay) [4]: 0%
% inhibition of TSH stimulation; TSH (2) [4]: 0%
% inhibition of TSH stimulation; TSH (2) (run at the end of assay, against the first TSH sample); Experiment 1 [4]: 0%
% inhibition of TSH stimulation; TSH (2) (run at the end of assay, against the first TSH sample); Experiment 2 [4]: 0%
% inhibition of TSH stimulation; TSH (2), run at the end of assay [4]: 0.2%
% inhibition of TSH stimulation; TSH (2); Experiment 1 [4]: 0%
% inhibition of TSH stimulation; TSH (2); Experiment 2 [4]: 0%
Cyclic AMP produced (pmol/mL), 0.01 ng/mL TSH [4]: 2.29 pmol/mL
Cyclic AMP produced (pmol/mL), 0.01 ng/mL TSH, Experiment 1 [4]: 1.8 pmol/mL
Cyclic AMP produced (pmol/mL), 0.01 ng/mL TSH, Experiment 2 [4]: 1.3 pmol/mL
Cyclic AMP produced (pmol/mL), 0.03 ng/mL TSH [4]: 3.56 pmol/mL
Cyclic AMP produced (pmol/mL), 0.03 ng/mL TSH, Experiment 1 [4]: 3.91 pmol/mL
Cyclic AMP produced (pmol/mL), 0.03 ng/mL TSH, Experiment 2 [4]: 3 pmol/mL
Cyclic AMP produced (pmol/mL), 0.1 ng/mL TSH [4]: 8.45 pmol/mL
Cyclic AMP produced (pmol/mL), 0.1 ng/mL TSH, Experiment 1 [4]: 8.92 pmol/mL
Cyclic AMP produced (pmol/mL), 0.1 ng/mL TSH, Experiment 2 [4]: 6.69 pmol/mL
Cyclic AMP produced (pmol/mL), 0.3 ng/mL TSH [4]: 26.3 pmol/mL
Cyclic AMP produced (pmol/mL), 0.3 ng/mL TSH, Experiment 1 [4]: 33 pmol/mL
Cyclic AMP produced (pmol/mL), 0.3 ng/mL TSH, Experiment 2 [4]: 26.2 pmol/mL
Cyclic AMP produced (pmol/mL), 1 ng/mL TSH [4]: 65.7 pmol/mL
Cyclic AMP produced (pmol/mL), 1 ng/mL TSH, Experiment 1 [4]: 76.1 pmol/mL
Cyclic AMP produced (pmol/mL), 1 ng/mL TSH, Experiment 2 [4]: 68.1 pmol/mL
Cyclic AMP produced (pmol/mL), 3 ng/mL TSH [4]: 77.1 pmol/mL
Cyclic AMP produced (pmol/mL), 3 ng/mL TSH, Experiment 1 [4]: 86.2 pmol/mL
Cyclic AMP produced (pmol/mL), 3 ng/mL TSH, Experiment 2 [4]: 69.8 pmol/mL
Cyclic AMP produced (pmol/mL), TSH 0.01 ng/mL [4]: 1.56 pmol/mL
Cyclic AMP produced (pmol/mL), TSH 0.01 ng/mL, Experiment 1 [4]: 1.37 pmol/mL
Cyclic AMP produced (pmol/mL), TSH 0.01 ng/mL, Experiment 2 [4]: 2.1 pmol/mL
Cyclic AMP produced (pmol/mL), TSH 0.03 ng/mL [4]: 2.42 pmol/mL
Cyclic AMP produced (pmol/mL), TSH 0.03 ng/mL, Experiment 1 [4]: 1.58 pmol/mL
Cyclic AMP produced (pmol/mL), TSH 0.03 ng/mL, Experiment 2 [4]: 4.48 pmol/mL
Cyclic AMP produced (pmol/mL), TSH 0.1 ng/mL [4]: 4.09 pmol/mL
Cyclic AMP produced (pmol/mL), TSH 0.1 ng/mL, Experiment 1 [4]: 1.83 pmol/mL
Cyclic AMP produced (pmol/mL), TSH 0.1 ng/mL, Experiment 2 [4]: 10.3 pmol/mL
Cyclic AMP produced (pmol/mL), TSH 0.3 ng/mL [4]: 11.4 pmol/mL
Cyclic AMP produced (pmol/mL), TSH 0.3 ng/mL, Experiment 1 (single determination) [4]: 3.2 pmol/mL
Cyclic AMP produced (pmol/mL), TSH 0.3 ng/mL, Experiment 2 [4]: 35.7 pmol/mL
Cyclic AMP produced (pmol/mL), TSH 1 ng/mL [4]: 45.6 pmol/mL
Cyclic AMP produced (pmol/mL), TSH 1 ng/mL, Experiment 1 [4]: 15.9 pmol/mL
Cyclic AMP produced (pmol/mL), TSH 1 ng/mL, Experiment 2 [4]: 72 pmol/mL
Cyclic AMP produced (pmol/mL), TSH 3 ng/mL [4]: 77.9 pmol/mL
Cyclic AMP produced (pmol/mL), TSH 3 ng/mL, Experiment 1 [4]: 47.6 pmol/mL
Cyclic AMP produced (pmol/mL), TSH 3 ng/mL, Experiment 2 [4]: 79.2 pmol/mL
Cyclic AMP produced, TSH 0.01 ng/mL, wild type TSHR [4]: 2.28 pmol/mL
Cyclic AMP produced, TSH 0.03 ng/mL, wild type TSHR [4]: 3.77 pmol/mL
Cyclic AMP produced, TSH 0.1 ng/mL, wild type TSHR [4]: 9.55 pmol/mL
Cyclic AMP produced, TSH 0.3 ng/mL, wild type TSHR [4]: 28.8 pmol/mL
Cyclic AMP produced, TSH 1 ng/mL, wild type TSHR [4]: 76.8 pmol/mL
Cyclic AMP produced, TSH 3 ng/mL, wild type TSHR [4]: 93.1 pmol/mL
Cyclic AMP produced, wild type TSHR, TSH 0.01 ng/mL (Experiment 1) [4]: 1.69 pmol/mL
Cyclic AMP produced, wild type TSHR, TSH 0.01 ng/mL (Experiment 2) [4]: 4.16 pmol/mL
Cyclic AMP produced, wild type TSHR, TSH 0.03 ng/mL (Experiment 1) [4]: 2.46 pmol/mL
Cyclic AMP produced, wild type TSHR, TSH 0.03 ng/mL (Experiment 2) [4]: 4.92 pmol/mL
Cyclic AMP produced, wild type TSHR, TSH 0.1 ng/mL (Experiment 1) [4]: 6.18 pmol/mL
Cyclic AMP produced, wild type TSHR, TSH 0.1 ng/mL (Experiment 2) [4]: 11.2 pmol/mL
Cyclic AMP produced, wild type TSHR, TSH 0.3 ng/mL (Experiment 1) [4]: 18.9 pmol/mL
Cyclic AMP produced, wild type TSHR, TSH 0.3 ng/mL (Experiment 2) [4]: 31.4 pmol/mL
Cyclic AMP produced, wild type TSHR, TSH 1 ng/mL (Experiment 1) [4]: 45.2 pmol/mL
Cyclic AMP produced, wild type TSHR, TSH 1 ng/mL (Experiment 2) [4]: 74.3 pmol/mL
Cyclic AMP produced, wild type TSHR, TSH 3 ng/mL (Experiment 1) [4]: 61.6 pmol/mL
Cyclic AMP produced, wild type TSHR, TSH 3 ng/mL (Experiment 2) [4]: 96.4 pmol/mL
Cyclic AMP produced; TSH 3 ng/mL [4]: 85 pmol/mL
Cyclic AMP produced; TSH 3 ng/mL alone [4]: 83.8 pmol/mL
Cyclic AMP produced; TSH 3 ng/mL; Experiment 1 [4]: 68.8 pmol/mL
Cyclic AMP produced; TSH 3 ng/mL; Experiment 2 [4]: 97.9 pmol/mL
Cyclic AMP produced; TSH (2) [4]: 93.5 pmol/mL
Cyclic AMP produced; TSH (2) 3 ng/mL, run at the end of assay [4]: 83.6 pmol/mL
Cyclic AMP produced; TSH (2); Experiment 1 [4]: 74.3 pmol/mL
Cyclic AMP produced; TSH (2); Experiment 2 [4]: 102 pmol/mL
Experiment 1: % inhibition of TSH stimulation; TSH (2), run at the end of assay [4]: 0%
Experiment 1; % inhibition of TSH stimulation; TSH (2) 3 ng/mL, run at the end of assay [4]: 5%
Experiment 1; cyclic AMP produced; TSH 3 ng/mL [4]: 78 pmol/mL
Experiment 1; cyclic AMP produced; TSH (2) 3 ng/mL, run at the end of assay [4]: 74.3 pmol/mL
